The target in the assay is T1, SARS-CoV-2 spike trimer (as imaged by NS-EM) (SARS-CoV-2, ancestral (Wuhan-Hu-1, …, UniProt P0DTC2)).
T1 construct: also called spike trimers; spike protein
Put plainly: negative-stain electron microscopy. Particulars: both partners purified.

B1: CoVIC-259 (antibody, V domains shown)
VH: EVQLVESGGGVVQPGRSLRLSCAASGFTFSSYAMHWVRQAPGKGLEWVAVLSYDGSNKYNADSVKGRFTISRDNSKNTLYLQMNSLRVEDTAMYYCARDGVSVTMVRGVIGPLCDYWGQGTLVTVSS
VL: not shown
notes: also called RBD-1 community representative
B1: the binding result is reported as “binds”.

For the origin of these results see PMC9302186, “Defining variant-resistant epitopes targeted by SARS-CoV-2 antibodies: A global consortium study” (Science (New York, N.y.), 2021).
